1 protein from ChEMBL document CHEMBL2074203, “Multidrug resistance protein MRP1 protects against the toxicity of the major lipid peroxidation product 4-hydroxynonenal” (Biochem J, 2000) can be followed below.

Substrate in this data set: CCCCCC1OC(O)CC1SC[C@H](NC(=O)CC[C@H](N)C(=O)O)C(=O)NCC(=O)O
The data set is described as follows: TP_TRANSPORTER: uptake in membrane vesicle from MRP1-expressing High Five insect cells. The data set is classed as functional, cell membranes, BTI-TN-5B1-4.

B1: Multidrug resistance-associated protein 1 (Homo sapiens) (protein)
chain: MALRGFCSADGSDPLWDWNVTWNTSNPDFTKCFQNTVLVWVPCFYLWACFPFYFLYLSRHDRGYIQMTPLNKTKTALGFLLWIVCWADLFYSFWERSRGIFLAPVFLVSPTLLGITMLLATFLIQLERRKGVQSSGIMLTFWLVALVCALAILRSKIMTALKEDAQVDLFRDITFYVYFSLLLIQLVLSCFSDRSPLFSETIHDPNPCPESSASFLSRITFWWITGLIVRGYRQPLEGSDLWSLNKEDTSEQVVPVLVKNWKKECAKTRKQPVKVVYSSKDPAQPKESSKVDANEEVEALIVKSPQKEWNPSLFKVLYKTFGPYFLMSFFFKAIHDLMMFSGPQILKLLIKFVNDTKAPDWQGYFYTVLLFVTACLQTLVLHQYFHICFVSGMRIKTAVIGAVYRKALVITNSARKSSTVGEIVNLMSVDAQRFMDLATYINMIWSAPLQVILALYLLWLNLGPSVLAGVAVMVLMVPVNAVMAMKTKTYQVAHMKSKDNRIKLMNEILNGIKVLKLYAWELAFKDKVLAIRQEELKVLKKSAYLSAVGTFTWVCTPFLVALCTFAVYVTIDENNILDAQTAFVSLALFNILRFPLNILPMVISSIVQASVSLKRLRIFLSHEELEPDSIERRPVKDGGGTNSITVRNATFTWARSDPPTLNGITFSIPEGALVAVVGQVGCGKSSLLSALLAEMDKVEGHVAIKGSVAYVPQQAWIQNDSLRENILFGCQLEEPYYRSVIQACALLPDLEILPSGDRTEIGEKGVNLSGGQKQRVSLARAVYSNADIYLFDDPLSAVDAHVGKHIFENVIGPKGMLKNKTRILVTHSMSYLPQVDVIIVMSGGKISEMGSYQELLARDGAFAEFLRTYASTEQEQDAEENGVTGVSGPGKEAKQMENGMLVTDSAGKQLQRQLSSSSSYSGDISRHHNSTAELQKAEAKKEETWKLMEADKAQTGQVKLSVYWDYMKAIGLFISFLSIFLFMCNHVSALASNYWLSLWTDDPIVNGTQEHTKVRLSVYGALGISQGIAVFGYSMAVSIGGILASRCLHVDLLHSILRSPMSFFERTPSGNLVNRFSKELDTVDSMIPEVIKMFMGSLFNVIGACIVILLATPIAAIIIPPLGLIYFFVQRFYVASSRQLKRLESVSRSPVYSHFNETLLGVSVIRAFEEQERFIHQSDLKVDENQKAYYPSIVANRWLAVRLECVGNCIVLFAALFAVISRHSLSAGLVGLSVSYSLQVTTYLNWLVRMSSEMETNIVAVERLKEYSETEKEAPWQIQETAPPSSWPQVGRVEFRNYCLRYREDLDFVLRHINVTINGGEKVGIVGRTGAGKSSLTLGLFRINESAEGEIIIDGINIAKIGLHDLRFKITIIPQDPVLFSGSLRMNLDPFSQYSDEEVWTSLELAHLKDFVSALPDKLDHECAEGGENLSVGQRQLVCLARALLRKTKILVLDEATAAVDLETDDLIQSTIRTQFEDCTVLTIAHRLNTIMDYTRVIVLDKGEIQEYGAPSDLLQQRGLFYSMAKDAGLV
Turning to B1, the Michaelis constant (Km) turned out to be 1.6 µM.

As usually defined, the Km is the concentration of substrate that gives half-maximal velocity.
